In paper PMC3834196, “High Resolution Crystal Structure of Human β-Glucuronidase Reveals Structural Basis of Lysosome Targeting” (PLoS ONE, 2013):

Molecular target: the molecule itself
Assay: crystal structure; vapor diffusion, 50 mM Tris pH 7.5, 15% MPD, 25°C; four monomers (A, B, D, E) in the asymmetric unit; refined to 1.7 Å

B1: Human β-glucuronidase (enzyme, UniProt P08236 23-651, looked up)
chain: LQGGMLYPQESPSRECKELDGLWSFRADFSDNRRRGFEEQWYRRPLWESGPTVDMPVPSSFNDISQDWRLRHFVGWVWYEREVILPERWTQDLRTRVVLRIGSAHSYAIVWVNGVDTLEHEGGYLPFEADISNLVQVGPLPSRLRITIAINNTLTPTTLPPGTIQYLTDTSKYPKGYFVQNTYFDFFNYAGLQRSVLLYTTPTTYIDDITVTTSVEQDSGLVNYQISVKGSNLFKLEVRLLDAENKVVANGTGTQGQLKVPGVSLWWPYLMHERPAYLYSLEVQLTAQTSLGPVSDFYTLPVGIRTVAVTKSQFLINGKPFYFHGVNKHEDADIRGKGFDWPLLVKDFNLLRWLGANAFRTSHYPYAEEVMQMCDRYGIVVIDECPGVGLALPQFFNNVSLHHHMQVMEEVVRRDKNHPAVVMWSVANEPASHLESAGYYLKMVIAHTKSLDPSRPVTFVSNSNYAADKGAPYVDVICLNSYYSWYHDYGHLELIQLQLATQFENWYKKYQKPIIQSEYGAETIAGFHQDPPLMFTEEYQKSLLEQYHLGLDQKRRKYVVGELIWNFADFMTEQSPTRVLGNKKGIFTRQRQPKSAAFLLRERYWKIANETRYPHSVAKSQCLENSLFT
modifications: N-linked oligosaccharide at Asn173 (six mannose, one β-D-mannose, three N-acetyl glucosamine); single N-acetyl-glucopyranose at Asn272 (as seen in the electron density)
notes: β-glucuronidase, human, UniProt P08236; secreted enzyme; the final model holds residues 22 to 631 of each subunit; Homotetramer (subunits A, B, D, E) in the crystal; also called GUS; human GUS; source: CHO-K1, stably transfected, secreted
In the case of B1, the “stoichiometry N” value is reported as 4.
